Reference: patent US20180155451A1 (published 2018)

These binders were tested against T1, FcγRIa extracellular domain with C-terminal His tag (human, UniProt P12314 16-292) (assay: SPR (Biacore), captured antibody, FcγRIa analyte; relative to GpH7-B3/GpL16-k0 = 100).
T1 construct: extracellular domain; Expressed in FreeStyle293 cells; used as analyte in Biacore; also called FcgRI; 1a; not shown: His tag at the C terminus
T1 sequence (P12314 16-292): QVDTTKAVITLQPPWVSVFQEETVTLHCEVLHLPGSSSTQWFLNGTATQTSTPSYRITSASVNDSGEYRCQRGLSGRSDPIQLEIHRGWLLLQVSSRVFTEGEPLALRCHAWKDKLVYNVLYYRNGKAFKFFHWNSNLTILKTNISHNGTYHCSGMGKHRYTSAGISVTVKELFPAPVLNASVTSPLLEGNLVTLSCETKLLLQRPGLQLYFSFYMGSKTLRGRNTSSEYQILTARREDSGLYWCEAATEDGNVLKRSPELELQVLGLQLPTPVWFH

Row | Binder | Ho/Con_1a
1 | GpH7-B3 variant (I336_14T)/GpL16-k0 (antibody, human IgG1, kappa, Homodimerized; both H chains altered; also called Ho Ab I336_14T) heavy: not shown light: DIVMTQSPLSLPVTPGEPASISCQASESLVHSNRNTYLHWYLQKPGQSPQLLIYKVSNRFSGVPDRFSGSGSGTDFTLKISRVEAEDVGVYYCSQNTHVPPTFGQGTKVEIERTVAAPSVFIFPPSDEQLKSGTASVVCLLNNFYPREAKVQWKVDNALQSGNSQESVTEQDSKDSTYSLSSTLTLSKADYEKHKVYACEVTHQGLSSPVTKSFNRGEC | 111 % of control
2 | GpH7-B3 variant (H268_10E)/GpL16-k0 (antibody, human IgG1, kappa, Homodimerized; both H chains altered; also called Ho Ab H268_10E) heavy: not shown light: DIVMTQSPLSLPVTPGEPASISCQASESLVHSNRNTYLHWYLQKPGQSPQLLIYKVSNRFSGVPDRFSGSGSGTDFTLKISRVEAEDVGVYYCSQNTHVPPTFGQGTKVEIERTVAAPSVFIFPPSDEQLKSGTASVVCLLNNFYPREAKVQWKVDNALQSGNSQESVTEQDSKDSTYSLSSTLTLSKADYEKHKVYACEVTHQGLSSPVTKSFNRGEC | 112 % of control
3 | GpH7-B3 variant (S337_09D)/GpL16-k0 (antibody, human IgG1, kappa, Homodimerized; both H chains altered; also called Ho Ab S337_09D) heavy: not shown light: DIVMTQSPLSLPVTPGEPASISCQASESLVHSNRNTYLHWYLQKPGQSPQLLIYKVSNRFSGVPDRFSGSGSGTDFTLKISRVEAEDVGVYYCSQNTHVPPTFGQGTKVEIERTVAAPSVFIFPPSDEQLKSGTASVVCLLNNFYPREAKVQWKVDNALQSGNSQESVTEQDSKDSTYSLSSTLTLSKADYEKHKVYACEVTHQGLSSPVTKSFNRGEC | 106 % of control
4 | GpH7-B3 variant (S337_19Q)/GpL16-k0 (antibody, human IgG1, kappa, Homodimerized; both H chains altered; also called Ho Ab S337_19Q) heavy: not shown light: DIVMTQSPLSLPVTPGEPASISCQASESLVHSNRNTYLHWYLQKPGQSPQLLIYKVSNRFSGVPDRFSGSGSGTDFTLKISRVEAEDVGVYYCSQNTHVPPTFGQGTKVEIERTVAAPSVFIFPPSDEQLKSGTASVVCLLNNFYPREAKVQWKVDNALQSGNSQESVTEQDSKDSTYSLSSTLTLSKADYEKHKVYACEVTHQGLSSPVTKSFNRGEC | 105 % of control
5 | GpH7-B3 variant (T335_06M)/GpL16-k0 (antibody, human IgG1, kappa, Homodimerized; both H chains altered; also called Ho Ab T335_06M) heavy: not shown light: DIVMTQSPLSLPVTPGEPASISCQASESLVHSNRNTYLHWYLQKPGQSPQLLIYKVSNRFSGVPDRFSGSGSGTDFTLKISRVEAEDVGVYYCSQNTHVPPTFGQGTKVEIERTVAAPSVFIFPPSDEQLKSGTASVVCLLNNFYPREAKVQWKVDNALQSGNSQESVTEQDSKDSTYSLSSTLTLSKADYEKHKVYACEVTHQGLSSPVTKSFNRGEC | 106 % of control
6 | GpH7-B3 variant (S337_07I)/GpL16-k0 (antibody, human IgG1, kappa, Homodimerized; both H chains altered; also called Ho Ab S337_07I) heavy: not shown light: DIVMTQSPLSLPVTPGEPASISCQASESLVHSNRNTYLHWYLQKPGQSPQLLIYKVSNRFSGVPDRFSGSGSGTDFTLKISRVEAEDVGVYYCSQNTHVPPTFGQGTKVEIERTVAAPSVFIFPPSDEQLKSGTASVVCLLNNFYPREAKVQWKVDNALQSGNSQESVTEQDSKDSTYSLSSTLTLSKADYEKHKVYACEVTHQGLSSPVTKSFNRGEC | 105 % of control
7 | GpH7-B3 variant (H268_09D)/GpL16-k0 (antibody, human IgG1, kappa, Homodimerized; both H chains altered; also called Ho Ab H268_09D) heavy: not shown light: DIVMTQSPLSLPVTPGEPASISCQASESLVHSNRNTYLHWYLQKPGQSPQLLIYKVSNRFSGVPDRFSGSGSGTDFTLKISRVEAEDVGVYYCSQNTHVPPTFGQGTKVEIERTVAAPSVFIFPPSDEQLKSGTASVVCLLNNFYPREAKVQWKVDNALQSGNSQESVTEQDSKDSTYSLSSTLTLSKADYEKHKVYACEVTHQGLSSPVTKSFNRGEC | 110 % of control
8 | GpH7-B3 variant (I336_12R)/GpL16-k0 (antibody, human IgG1, kappa, Homodimerized; both H chains altered; also called Ho Ab I336_12R) heavy: not shown light: DIVMTQSPLSLPVTPGEPASISCQASESLVHSNRNTYLHWYLQKPGQSPQLLIYKVSNRFSGVPDRFSGSGSGTDFTLKISRVEAEDVGVYYCSQNTHVPPTFGQGTKVEIERTVAAPSVFIFPPSDEQLKSGTASVVCLLNNFYPREAKVQWKVDNALQSGNSQESVTEQDSKDSTYSLSSTLTLSKADYEKHKVYACEVTHQGLSSPVTKSFNRGEC | 109 % of control
9 | GpH7-B3 variant (I336_09D)/GpL16-k0 (antibody, human IgG1, kappa, Homodimerized; both H chains altered; also called Ho Ab I336_09D) heavy: not shown light: DIVMTQSPLSLPVTPGEPASISCQASESLVHSNRNTYLHWYLQKPGQSPQLLIYKVSNRFSGVPDRFSGSGSGTDFTLKISRVEAEDVGVYYCSQNTHVPPTFGQGTKVEIERTVAAPSVFIFPPSDEQLKSGTASVVCLLNNFYPREAKVQWKVDNALQSGNSQESVTEQDSKDSTYSLSSTLTLSKADYEKHKVYACEVTHQGLSSPVTKSFNRGEC | 108 % of control
10 | GpH7-B3 variant (H268_13S)/GpL16-k0 (antibody, human IgG1, kappa, Homodimerized; both H chains altered; also called Ho Ab H268_13S) heavy: not shown light: DIVMTQSPLSLPVTPGEPASISCQASESLVHSNRNTYLHWYLQKPGQSPQLLIYKVSNRFSGVPDRFSGSGSGTDFTLKISRVEAEDVGVYYCSQNTHVPPTFGQGTKVEIERTVAAPSVFIFPPSDEQLKSGTASVVCLLNNFYPREAKVQWKVDNALQSGNSQESVTEQDSKDSTYSLSSTLTLSKADYEKHKVYACEVTHQGLSSPVTKSFNRGEC | 110 % of control
11 | GpH7-B3 variant (I336_11K)/GpL16-k0 (antibody, human IgG1, kappa, Homodimerized; both H chains altered; also called Ho Ab I336_11K) heavy: not shown light: DIVMTQSPLSLPVTPGEPASISCQASESLVHSNRNTYLHWYLQKPGQSPQLLIYKVSNRFSGVPDRFSGSGSGTDFTLKISRVEAEDVGVYYCSQNTHVPPTFGQGTKVEIERTVAAPSVFIFPPSDEQLKSGTASVVCLLNNFYPREAKVQWKVDNALQSGNSQESVTEQDSKDSTYSLSSTLTLSKADYEKHKVYACEVTHQGLSSPVTKSFNRGEC | 107 % of control

Further lines, results first:

Row | Ho/Con_1a | Binder
12 | 108 % of control | GpH7-B3 variant (H268_01G)/GpL16-k0 (antibody, human IgG1, kappa, Homodimerized; both H chains altered; also called Ho Ab H268_01G) heavy: not shown light: DIVMTQSPLSLPVTPGEPASISCQASESLVHSNRNTYLHWYLQKPGQSPQLLIYKVSNRFSGVPDRFSGSGSGTDFTLKISRVEAEDVGVYYCSQNTHVPPTFGQGTKVEIERTVAAPSVFIFPPSDEQLKSGTASVVCLLNNFYPREAKVQWKVDNALQSGNSQESVTEQDSKDSTYSLSSTLTLSKADYEKHKVYACEVTHQGLSSPVTKSFNRGEC
13 | 104 % of control | GpH7-B3 variant (S337_20W)/GpL16-k0 (antibody, human IgG1, kappa, Homodimerized; both H chains altered; also called Ho Ab S337_20W) heavy: not shown light: DIVMTQSPLSLPVTPGEPASISCQASESLVHSNRNTYLHWYLQKPGQSPQLLIYKVSNRFSGVPDRFSGSGSGTDFTLKISRVEAEDVGVYYCSQNTHVPPTFGQGTKVEIERTVAAPSVFIFPPSDEQLKSGTASVVCLLNNFYPREAKVQWKVDNALQSGNSQESVTEQDSKDSTYSLSSTLTLSKADYEKHKVYACEVTHQGLSSPVTKSFNRGEC
14 | 109 % of control | GpH7-B3 variant (I336_08L)/GpL16-k0 (antibody, human IgG1, kappa, Homodimerized; both H chains altered; also called Ho Ab I336_08L) heavy: not shown light: DIVMTQSPLSLPVTPGEPASISCQASESLVHSNRNTYLHWYLQKPGQSPQLLIYKVSNRFSGVPDRFSGSGSGTDFTLKISRVEAEDVGVYYCSQNTHVPPTFGQGTKVEIERTVAAPSVFIFPPSDEQLKSGTASVVCLLNNFYPREAKVQWKVDNALQSGNSQESVTEQDSKDSTYSLSSTLTLSKADYEKHKVYACEVTHQGLSSPVTKSFNRGEC
15 | 110 % of control | GpH7-B3 variant (I336_13S)/GpL16-k0 (antibody, human IgG1, kappa, Homodimerized; both H chains altered; also called Ho Ab I336_13S) heavy: not shown light: DIVMTQSPLSLPVTPGEPASISCQASESLVHSNRNTYLHWYLQKPGQSPQLLIYKVSNRFSGVPDRFSGSGSGTDFTLKISRVEAEDVGVYYCSQNTHVPPTFGQGTKVEIERTVAAPSVFIFPPSDEQLKSGTASVVCLLNNFYPREAKVQWKVDNALQSGNSQESVTEQDSKDSTYSLSSTLTLSKADYEKHKVYACEVTHQGLSSPVTKSFNRGEC
16 | 105 % of control | GpH7-B3 variant (S337_04F)/GpL16-k0 (antibody, human IgG1, kappa, Homodimerized; both H chains altered; also called Ho Ab S337_04F) heavy: not shown light: DIVMTQSPLSLPVTPGEPASISCQASESLVHSNRNTYLHWYLQKPGQSPQLLIYKVSNRFSGVPDRFSGSGSGTDFTLKISRVEAEDVGVYYCSQNTHVPPTFGQGTKVEIERTVAAPSVFIFPPSDEQLKSGTASVVCLLNNFYPREAKVQWKVDNALQSGNSQESVTEQDSKDSTYSLSSTLTLSKADYEKHKVYACEVTHQGLSSPVTKSFNRGEC
17 | 104 % of control | GpH7-B3 variant (S337_15Y)/GpL16-k0 (antibody, human IgG1, kappa, Homodimerized; both H chains altered; also called Ho Ab S337_15Y) heavy: not shown light: DIVMTQSPLSLPVTPGEPASISCQASESLVHSNRNTYLHWYLQKPGQSPQLLIYKVSNRFSGVPDRFSGSGSGTDFTLKISRVEAEDVGVYYCSQNTHVPPTFGQGTKVEIERTVAAPSVFIFPPSDEQLKSGTASVVCLLNNFYPREAKVQWKVDNALQSGNSQESVTEQDSKDSTYSLSSTLTLSKADYEKHKVYACEVTHQGLSSPVTKSFNRGEC
18 | 106 % of control | GpH7-B3 variant (T335_05P)/GpL16-k0 (antibody, human IgG1, kappa, Homodimerized; both H chains altered; also called Ho Ab T335_05P) heavy: not shown light: DIVMTQSPLSLPVTPGEPASISCQASESLVHSNRNTYLHWYLQKPGQSPQLLIYKVSNRFSGVPDRFSGSGSGTDFTLKISRVEAEDVGVYYCSQNTHVPPTFGQGTKVEIERTVAAPSVFIFPPSDEQLKSGTASVVCLLNNFYPREAKVQWKVDNALQSGNSQESVTEQDSKDSTYSLSSTLTLSKADYEKHKVYACEVTHQGLSSPVTKSFNRGEC
19 | 105 % of control | GpH7-B3 variant (S337_08L)/GpL16-k0 (antibody, human IgG1, kappa, Homodimerized; both H chains altered; also called Ho Ab S337_08L) heavy: not shown light: DIVMTQSPLSLPVTPGEPASISCQASESLVHSNRNTYLHWYLQKPGQSPQLLIYKVSNRFSGVPDRFSGSGSGTDFTLKISRVEAEDVGVYYCSQNTHVPPTFGQGTKVEIERTVAAPSVFIFPPSDEQLKSGTASVVCLLNNFYPREAKVQWKVDNALQSGNSQESVTEQDSKDSTYSLSSTLTLSKADYEKHKVYACEVTHQGLSSPVTKSFNRGEC
20 | 102 % of control | GpH7-B3 variant (S337_06M)/GpL16-k0 (antibody, human IgG1, kappa, Homodimerized; both H chains altered; also called Ho Ab S337_06M) heavy: not shown light: DIVMTQSPLSLPVTPGEPASISCQASESLVHSNRNTYLHWYLQKPGQSPQLLIYKVSNRFSGVPDRFSGSGSGTDFTLKISRVEAEDVGVYYCSQNTHVPPTFGQGTKVEIERTVAAPSVFIFPPSDEQLKSGTASVVCLLNNFYPREAKVQWKVDNALQSGNSQESVTEQDSKDSTYSLSSTLTLSKADYEKHKVYACEVTHQGLSSPVTKSFNRGEC
21 | 104 % of control | GpH7-B3 variant (S337_10E)/GpL16-k0 (antibody, human IgG1, kappa, Homodimerized; both H chains altered; also called Ho Ab S337_10E) heavy: not shown light: DIVMTQSPLSLPVTPGEPASISCQASESLVHSNRNTYLHWYLQKPGQSPQLLIYKVSNRFSGVPDRFSGSGSGTDFTLKISRVEAEDVGVYYCSQNTHVPPTFGQGTKVEIERTVAAPSVFIFPPSDEQLKSGTASVVCLLNNFYPREAKVQWKVDNALQSGNSQESVTEQDSKDSTYSLSSTLTLSKADYEKHKVYACEVTHQGLSSPVTKSFNRGEC
22 | 108 % of control | GpH7-B3 variant (H268_18N)/GpL16-k0 (antibody, human IgG1, kappa, Homodimerized; both H chains altered; also called Ho Ab H268_18N) heavy: not shown light: DIVMTQSPLSLPVTPGEPASISCQASESLVHSNRNTYLHWYLQKPGQSPQLLIYKVSNRFSGVPDRFSGSGSGTDFTLKISRVEAEDVGVYYCSQNTHVPPTFGQGTKVEIERTVAAPSVFIFPPSDEQLKSGTASVVCLLNNFYPREAKVQWKVDNALQSGNSQESVTEQDSKDSTYSLSSTLTLSKADYEKHKVYACEVTHQGLSSPVTKSFNRGEC
